Measurements from EP4702986A1, “POLYPEPTIDE AND USE THEREOF” (Biocells (Beijing) Biotech Co., Ltd., priority 2023, dated 2024).
Values joined by “and” are separate entries in the source; they are usually repeats but may differ in a detail not shown here. Equal entries are not always repeated. Numbered stars: 1 amine (or outer) side, 2 acyl side, 3 side chain; on linkers, the order of the positions; unused ones are H or OH. Square brackets hold non-standard residues; d marks the D form. Side chains are listed from the residue outwards. Ends that are not written are not given here. * marks the point of attachment. C18 diacid = O=C(O)CCCCCCCCCCCCCCCCC(=O)*; γGlu = O=C(O)[C@H](CCC(=O)[*:2])N[*:1]; Hexadienoyl(2E,4E) = C/C=C/C=C/C(=O)*; NMeI = CC[C@H](C)[C@H](NC)C(=O)O; NMeL = CN[C@@H](CC(C)C)C(=O)O; Fumaroyl = O=C(O)/C=C/C(=O)*; Suc = O=C(CCC(=O)[*:2])[*:1]; AEEA = NCCOCCOCC(=O)O

The substances below were run against T1, human ETB receptor (Homo sapiens, UniProt P24530) (assay: Screening of polypeptides for activity on human ETB receptor (IP-One Gq kit, % of positive control IRL1620)). Conditions: not given.
T1 construct: expressed in transfected cells; host or cells: 293T-17 cells, transient transfection
T1 sequence (P24530 27-442): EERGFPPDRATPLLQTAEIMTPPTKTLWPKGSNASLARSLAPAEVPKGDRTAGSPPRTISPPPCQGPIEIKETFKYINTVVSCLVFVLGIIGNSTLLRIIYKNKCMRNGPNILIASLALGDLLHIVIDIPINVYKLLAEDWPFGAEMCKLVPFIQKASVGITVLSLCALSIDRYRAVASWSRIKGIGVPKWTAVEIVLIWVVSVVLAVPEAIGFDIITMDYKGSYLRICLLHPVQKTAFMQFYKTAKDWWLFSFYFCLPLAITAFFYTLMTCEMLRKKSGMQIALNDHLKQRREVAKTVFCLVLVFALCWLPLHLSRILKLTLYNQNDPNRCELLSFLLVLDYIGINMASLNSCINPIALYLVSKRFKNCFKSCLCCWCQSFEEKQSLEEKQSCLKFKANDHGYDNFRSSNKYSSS
Type: cell-based
Method: 293T-17 cells were seeded at a density of 650,000 cells per well in a 6-well plate and cultured overnight in an incubator at 37°C and 5% CO2. Afterward, the cells were transfected with an expression vector, PCDNA3.1-hETB which contained a human ETB receptor gene, at a plasmid concentration of 2.5 µg per well. The cells were further cultured for 48 hours, and green fluorescence expression was observed under a fluorescence microscope. The cells were then digested with trypsin and counted. The activity of compounds on the human ETB receptor was determined with the IP-One Gq kit from Cisbio Bioassays. The cells were suspended in Stim Buffer provided in the kit and the cell suspension was added to a 96-well detection plate at 7 µL cell suspension (containing 30,000 cells) per well. The polypeptides to be screened for activity (prepared according to the Preparation Example of the invention) and polypeptide IRL1620 as positive control were dissolved in Stim B to be at a concentration of 2×, and 7 µL was added to the test cells, while 7 µL of PBS solution was added to the cells in the negative control wells. IRL1620 was used as the positive control polypeptide. The plate was sealed and incubated at 37°C for 1 hour in a cell culture incubator. Test wells, positive control wells, and PBS control wells were each added with 3 µL of IP1 d2 working solution and 3 µL of IP1 Tb cryptotate Antibody working solution. The plate was then sealed and incubated in the dark at room temperature (25°C±5°C) for 1 hour. The plate seal was removed, and the […] at 665 nm and 620 nm was measured with an ID5 microplate reader. The ratio of the acceptor emission signal to the donor emission signal, i.e., the value of (signal at 665 nm/signal at 620 nm)×10^4, was calculated for each well. With F1 representing the average value of values of signal at 665 nm/signal at 620 nm determined for the test sample at a specific concentration, F2 representing the average value of values of signal at 665 nm/signal at 620 nm determined for the positive control IRL1620 at the same concentration, and T1 representing the average value of values of signal at 665 nm/signal at 620 nm determined for the PBS negative control, the percentage of activity of the test polypeptide sample relative to the positive control sample IRL1620 is equal to (F1-T1)×100/(F2-T1). hETB sequence (NCBI accession number NM_000115.5).

Substance | hETBR agonist activity, percentage of activity relative to IRL1620
Fum-DEEAK(-γE-AEEA-AEEA-ODDA)YFAHLDIIW [BX-67] (Fum-DEEAK with lipidated linker N-terminal) | 46.98%@100nM
MeO-Fum-D cyclo(EEAK)YFAHLD(2-Abu)IW [BX-65] | 99.24%@100nM
Fum-DEEAVYFAHOrn(-AEEA-AEEA-γE-ODDA)DIIW [BX-51] | 37.60%@100nM
Fum-D cyclo(EEAK)YFAHK(-γE-AEEA-AEEA-ODDA)DIIW [BX-103] | 14.93%@100nM
Suc-DEEAVYFAHOrn(-AEEA-AEEA-γE - ODDA)DIIW [BX-61] | 40.94%@100nM
Fum-D cyclo(EEAK)YFAHK(-γE-AEEA-AEEA-ODDA)D(2-Abu)IW [BX-104] | -21.93%@100nM
Fum-DEEEVYFAHK(-AEEA-AEEA-γE - ODDA)DIIW (Fumaroyl-DEEEVYFAHK([AEEA-AEEA-γGlu-C18 diacid])DIIW) [BX-60] | 4.84%@100nM
Fum-DEEAVYFAHKDVIW (Fumaroyl-DEEAVYFAHKDVIW) [BX-23] | 89.28%@100nM
Fum-D cyclo(EEAK)YFAHLDIIW (Fumaroyl-DEEAKYFAHLDIIW; lactam (positions not given here)) [BX-102] | 155.47%
Fum-DEEE(Biotin)VYFAHKDIIW [BX-16] | 22.24%@1µM and 14.10%@10µM

Results, then the substance that gave them:

hETBR agonist activity, percentage of activity relative to IRL1620 | Substance
9.56%@100nM | Fum-DEEAKYFAHK(-γE-AEEA-AEEA-ODDA)DVIW (Fumaroyl-DEEAKYFAHK([γGlu-AEEA-AEEA-C18 diacid])DVIW) [BX-108]
30.96% | Fum-DEEAVYFAHK(-γE-AEEA-AEEA-ODDA)DVIW (Fumaroyl-DEEAVYFAHK([γGlu-AEEA-AEEA-C18 diacid])DVIW) [BX-101]
64.98%@100nM | SA-DEEAVYFAHLDIIW ({Hexadienoyl(2E,4E)}-DEEAVYFAHLDIIW) [BX-111]
-10.59%@100nM | MeO-Fum-DEEAVYFAHK(-γE-AEEA-AEEA-ODDA)DIIW ({MeO‑Fum}-DEEAVYFAHK([γGlu-AEEA-AEEA-C18 diacid])DIIW) [BX-75]
132.61%@100nM | Fum-DEEAK(-γE-AEEA-AEEA-ODDA)YFAHLDVIW (Fum-DEEAK with lipidated linker N-terminal) [BX-110]
-18.64%@100nM | Fum-DEEAVYFK(-γE-AEEA-AEEA-ODDA)HLDIIW (Fumaroyl-DEEAVYFK([γGlu-AEEA-AEEA-C18 diacid])-{H2N-Leu-Asp-Ile-Ile-Trp}) [BX-68]
-10.73%@100nM | Fum-DEEAVYFAHL(N-Me)DIIW (Fumaroyl-DEEAVYFAH[NMeL]; not fully specified (C-terminus)) [BX-28]
0.42%@100nM | Suc-DEEAVYFAHL(N-Me)DI(N-Me)IW (Suc-DEEAVYFAH[NMeL]; not fully specified (C-terminus)) [BX-27]
30.58%@100nM | Suc-DEEAVYFAHL(N-Me)DIIW (Suc-DEEAVYFAH[NMeL]; not fully specified (C-terminus)) [BX-26]
74.1%@100nM | Fum-DEEAK(-γE-AEEA-AEEA-ODDA)YFAHLDIIW [BX-109] (Fum-DEEAK with lipidated linker N-terminal)
100.37%@100nM | Fum-DEEAKYFAHK(-γE-AEEA-AEEA-ODDA)DIIW (Fumaroyl-DEEAKYFAHK([γGlu-AEEA-AEEA-C18 diacid])DIIW) [BX-107]
253.05%@100nM | Fum-DEEAKYFAHLDIIW (Fumaroyl-DEEAKYFAHLDIIW) [BX-105]
117.63%@100nM | Fum-DEEAKYFAHLDVIW (Fumaroyl-DEEAKYFAHLDVIW) [BX-106]
6.51%@100nM | Fum-DEEAVYFAHL(N-Me)DI(N-Me)IW (Fumaroyl-DEEAVYFAH[NMeL]; not fully specified (C-terminus)) [BX-29]
99.81%@100nM | Fum-DEEAVYFAHLDVIW (Fumaroyl-DEEAVYFAHLDVIW) [FBX-7]
28.86%@100nM | Suc-DEEAVYFAHLDI(N-Me)IW (Suc-DEEAVYFAHLDI[NMeI]W) [BX-25]

Same assay, conditions: @10nM

Substance | hETBR agonist activity, percentage of activity relative to IRL1620
Fum-DEEAK(-γE-AEEA-AEEA-ODDA)YFAHLDIIW [BX-67] (Fum-DEEAK with lipidated linker N-terminal) | 2.68%@10nM
MeO-Fum-D cyclo(EEAK)YFAHLD(2-Abu)IW [BX-65] | 59.02%@10nM
Fum-DEEAVYFAHOrn(-AEEA-AEEA-γE-ODDA)DIIW [BX-51] | 47.83%@10nM
Fum-D cyclo(EEAK)YFAHK(-γE-AEEA-AEEA-ODDA)DIIW [BX-103] | 45.51%@10nM
Suc-DEEAVYFAHOrn(-AEEA-AEEA-γE - ODDA)DIIW [BX-61] | 13.97%@10nM
Fum-D cyclo(EEAK)YFAHK(-γE-AEEA-AEEA-ODDA)D(2-Abu)IW [BX-104] | -1299.77%@10nM
Fum-DEEEVYFAHK(-AEEA-AEEA-γE - ODDA)DIIW (Fumaroyl-DEEEVYFAHK([AEEA-AEEA-γGlu-C18 diacid])DIIW) [BX-60] | -15.72%@10nM
Fum-DEEAVYFAHKDVIW (Fumaroyl-DEEAVYFAHKDVIW) [BX-23] | 26.12%@10nM
Fum-D cyclo(EEAK)YFAHLDIIW (Fumaroyl-DEEAKYFAHLDIIW; lactam (positions not given here)) [BX-102] | 113.81%

Continued, values first:

hETBR agonist activity, percentage of activity relative to IRL1620 | Substance
-1185.11%@10nM | Fum-DEEAKYFAHK(-γE-AEEA-AEEA-ODDA)DVIW (Fumaroyl-DEEAKYFAHK([γGlu-AEEA-AEEA-C18 diacid])DVIW) [BX-108]
-11.84%@10nM | SA-DEEAVYFAHLDIIW ({Hexadienoyl(2E,4E)}-DEEAVYFAHLDIIW) [BX-111]
14.68%@10nM | MeO-Fum-DEEAVYFAHK(-γE-AEEA-AEEA-ODDA)DIIW ({MeO‑Fum}-DEEAVYFAHK([γGlu-AEEA-AEEA-C18 diacid])DIIW) [BX-75]
138.99%@10nM | Fum-DEEAK(-γE-AEEA-AEEA-ODDA)YFAHLDVIW (Fum-DEEAK with lipidated linker N-terminal) [BX-110]
-39.42%@10nM | Fum-DEEAVYFK(-γE-AEEA-AEEA-ODDA)HLDIIW (Fumaroyl-DEEAVYFK([γGlu-AEEA-AEEA-C18 diacid])-{H2N-Leu-Asp-Ile-Ile-Trp}) [BX-68]
8.27%@10nM | Fum-DEEAVYFAHL(N-Me)DIIW (Fumaroyl-DEEAVYFAH[NMeL]; not fully specified (C-terminus)) [BX-28]
1.72%@10nM | Suc-DEEAVYFAHL(N-Me)DI(N-Me)IW (Suc-DEEAVYFAH[NMeL]; not fully specified (C-terminus)) [BX-27]
11.94%@10nM | Suc-DEEAVYFAHL(N-Me)DIIW (Suc-DEEAVYFAH[NMeL]; not fully specified (C-terminus)) [BX-26]
-1095.4%@10nM | Fum-DEEAK(-γE-AEEA-AEEA-ODDA)YFAHLDIIW [BX-109] (Fum-DEEAK with lipidated linker N-terminal)
50.48%@10nM | Fum-DEEAKYFAHK(-γE-AEEA-AEEA-ODDA)DIIW (Fumaroyl-DEEAKYFAHK([γGlu-AEEA-AEEA-C18 diacid])DIIW) [BX-107]
64.66%@10nM | Fum-DEEAKYFAHLDIIW (Fumaroyl-DEEAKYFAHLDIIW) [BX-105]
117.57%@10nM | Fum-DEEAKYFAHLDVIW (Fumaroyl-DEEAKYFAHLDVIW) [BX-106]
15.61%@10nM | Fum-DEEAVYFAHL(N-Me)DI(N-Me)IW (Fumaroyl-DEEAVYFAH[NMeL]; not fully specified (C-terminus)) [BX-29]
91.89%@10nM | Fum-DEEAVYFAHLDVIW (Fumaroyl-DEEAVYFAHLDVIW) [FBX-7]
19.19%@10nM | Suc-DEEAVYFAHLDI(N-Me)IW (Suc-DEEAVYFAHLDI[NMeI]W) [BX-25]

Same assay, conditions: @1µM

hETBR agonist activity, percentage of activity relative to IRL1620 [%@1µM] | Substance
15.80 | Fum-DEE(C16)AVYFAHLDIIW ({Fumaroyl-Asp-Glu-E(C16)}-AVYFAHLDIIW; not fully specified; printed as Fum-DEE(C16)AVYFAHLDIIW) [BX14-1]

Same assay, conditions: @10µM

hETBR agonist activity, percentage of activity relative to IRL1620 [%@10µM] | Substance
18.63 | Fum-DEE(C16)AVYFAHLDIIW ({Fumaroyl-Asp-Glu-E(C16)}-AVYFAHLDIIW; not fully specified; printed as Fum-DEE(C16)AVYFAHLDIIW) [BX14-1]
